Laboratory results taken from publication PMC3776556, “Crystal structures of the CPAP/STIL complex reveal its role in centriole assembly and human microcephaly” (eLife, 2013).

What was measured:
[1] = SEC-MALS / dynamic light scattering of CPAP TCP domain; format: physicochemical
[2] = target: T1, Danio rerio CPAP^937–1124 TCP domain, WT (Danio rerio, UniProt E7FCY1 937-1124); assay: ITC; STIL peptide in syringe titrated into CPAP TCP domain in cell; 50 mM HEPES pH 7.5, 100 mM NaCl, 25°C; single set of binding sites model, N as a variable; CPAP typically 40 μM, STIL typically 700 μM; conditions: both partners purified
T1 construct: remnant of the cloning and protease cleavage sites at the N-terminus; also called TCP domain of D. rerio CPAP; G-box; source: E. coli BL21 (DE3) Rosetta, purified (NiNTA, proteolytic tag cleavage, optionally size exclusion, ion exchange); not shown: His tag, N-terminal, cleaved
T1 sequence: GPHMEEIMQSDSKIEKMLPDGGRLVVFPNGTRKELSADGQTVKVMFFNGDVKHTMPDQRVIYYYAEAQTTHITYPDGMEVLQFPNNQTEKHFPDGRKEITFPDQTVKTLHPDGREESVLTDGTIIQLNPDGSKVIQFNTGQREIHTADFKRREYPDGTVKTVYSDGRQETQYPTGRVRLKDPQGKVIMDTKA

B1: CPAP^937–1124: TCP domain of Danio rerio CPAP, residues 937–1124, recombinant, GPHM at N-terminus (protein)
chain: T1 sequence
modifications: left off: His tag, N-terminal, cleaved
notes: TCP domain of Danio rerio CPAP, residues 937–1124, recombinant, GPHM at N-terminus
oligomeric state in solution ([1]; SAXS and SEC-MALS): predominantly monomeric in solution | molar mass (averaged across central 50% of peak) ([1]; SEC-MALS, injected at approximately 460 μM, 25 mM bis Tris pH 7.2, 100 mM NaCl, theoretical monomer 22 kDa): 23 kDa | Rh (hydrodynamic radius) ([1]; dynamic light scattering with SEC, intermediate concentration, 25 mM bis Tris pH 7.2, 100 mM NaCl): 2.9 ± 0.15 nm

B2: Danio rerio STIL^429–448 (peptide)
chain: GQTKRVHPLVPELSMVLDGSFEFGENLYFQ
notes: remnant of the cloning and protease cleavage sites at the N-terminus; STIL, Danio rerio, residues 429-448; remnant of the cloning and protease cleavage sites at the C-terminus; expression and purification are told for STIL^404–448; also called C-terminal region of CR2 peptide; source: E. coli C41 BL21 (DE3), purified (NiNTA, proteolytic cleavage of the His-lipoyl domains, ion exchange); not …
Kd [2]: 540 µM | dH [2]: -6.3 kcal/mol | stoichiometry N [2]: 0.97

B3: Danio rerio STIL^411–428 (peptide)
chain: GEDEDLSPRPSPNPHPVSQENLYFQ
notes: remnant of the cloning and protease cleavage sites at the N-terminus; remnant of the cloning and protease cleavage sites at the C-terminus; expression and purification are told for STIL^404–448; the same paragraph gives the extra residues of this construct; also called N-terminal region of CR2 peptide; source: E. coli C41 BL21 (DE3), purified (NiNTA, proteolytic cleavage of the His-lipoyl …)
Kd [2]: 4 µM | dH [2]: -11.3 kcal/mol | stoichiometry N [2]: 0.98
